This note sets out measurements from the supplement of paper PMC5998384.

The subject of data set [1] is HeLa Kyoto. The data set is described as follows: solubility in G1/S (NP-40 vs SDS abundance) (log2 ratio); higher = more soluble. Particulars: cell cycle stage: G1/S.
In data set [2] the test system is HeLa Kyoto. The data set is described as follows: thermal stability score vs G1/S (z-score of summed log2 fold changes over temperatures); higher = more thermally stable than in G1/S.
Data set [3] has as its system HeLa Kyoto. The data set is described as follows: solubility change mitosis vs G1/S (difference of NP-40 vs SDS log2 ratios) (log2 ratio difference); higher = more soluble in mitosis.
Data set [4] deals with HeLa Kyoto. Put plainly: melting temperature (median over replicates), in situ; higher = more thermally stable.
[5] abbreviates: cell cycle stage: early G1 (4.5 h after nocodazole release).
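For melting temperature (median over replicates), in situ in this document: HeLa Kyoto cells synchronized by double thymidine or nocodazole block, proteins quantified by TMT10plex mass spectrometry, three independent biological replicates.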
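For solubility change mitosis vs G1/S (difference of NP-40 vs SDS log2 ratios) in this document: synchronized HeLa Kyoto cells (double thymidine block for G1/S, nocodazole release for mitosis), protein amounts in NP-40 versus SDS lysates quantified by mass spectrometry, three biological replicates.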
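For solubility in G1/S (NP-40 vs SDS abundance) in this document: HeLa Kyoto cells arrested at G1/S by double thymidine block, proteins quantified by TMT10plex mass spectrometry in mild NP-40 versus SDS extracts, three biological replicates.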
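For thermal stability score vs G1/S (z-score of summed log2 fold changes over temperatures) in this document: synchronized HeLa Kyoto cells, proteins quantified by TMT10plex mass spectrometry, three biological replicates, mitosis taken 0.5 h after nocodazole release, G1/S directly after double thymidine block.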

In the case of “MAEGERQPPPDSSEEAPPATQNFIIPKKEIHTVPDMGKWKRSQAYADYIGFILTLNEGVKGKKLTFEYRVSEMWNEVHEEKEQAAKQSVSCDECIPLPRAGHCAPSEAIEKLVALLNTLDRWIDETPPVDQPSRFGNKAYRTWYAKLDEEAENLVATVVPTHLAAAVPEVAVYLKESVGNSTRIDYGTGHEAAFAAFLCCLCKIGVLRVDDQIAIVFKVFNRYLEVMRKLQKTYRMEPAGSQGVWGLDDFQFLPFIWGSSQLIDHPYLEPRHFVDEKAVNENHKDYMFLECILFITEMKTGPFAEHSNQLWNISAVPSWSKVNQGLIRMYKAECLEKFPVIQHFKFGSLLPIHPVTSG [PPP2R4]”, the “solubility in G1/S (log2)” value in the data set with HeLa Kyoto [1] came to 0.247. The values for the thermal stability score in the data set with HeLa Kyoto [2] (setting [5]) and in the data set with HeLa Kyoto [2] (cell cycle stage: mitosis) were 2.14 and 2.26, respectively. In addition, the “solubility change mitosis (log2)” value in the data set on HeLa Kyoto [3] was -0.119. For the same substance, the melting temperature with HeLa Kyoto [4] (cell cycle stage: G1/S) and in the data set on HeLa Kyoto [4] (cell cycle stage: mitosis) was 53.8 °C throughout.

With “MADGSLTGGGLEAAAMAPERMGWAVEQELASLEKGLFQDEDSCSDCSYRDKPGSSLQSFMPEGKTFFPEIFQTNQLLFYERFRAYQDYILADCKASEVQEFTAEFLEKVLEPSGWRAVWHTNVFKVLVEITDVDFAALKAVVRLAEPYLCDSQVSTFTMECMKELLDLKEHRLPLQELWVVFDDSGVFDQTALAIEHVRFFYQNIWRSWDEEEEDEYDYFVRCVEPRLRLHYDILEDRVPSGLIVDYHNLLSQCEESYRKFLNLRSSLSNCNSDSEQENISMVEGLKLYSEMEQLKQKLKLIENPLLRYVFGYQKNSNIQAKGVRSSGQKITHVVSSTMMAGLLRSLLTDRLCQEPGEEEREIQFHSDPLSAINACFEGDTVIVCPGHYVVHGTFSIADSIELEGYGLPDDIVIEKRGKGDTFVDCTGADIKISGIKFVQHDAVEGILIVHRGKTTLENCVLQCETTGVTVRTSAEFLMKNSDLYGAKGAGIEIYPGSQCTLSDNGIHHCKEGILIKDFLDEHYDIPKISMVNNIIHNNEGYGVVLVKPTIFSDLQENAEDGTEENKALKIQTSGEPDVAERVDLEELIECATGKMELCARTDPSEQVEGNCEIVNELIAASTQKGQIKKKRLSELGITQADDNLMSQEMFVGIVGNQFKWNGKGSFGTFLF [SHCBP1]”, the “solubility in G1/S (log2)” value with HeLa Kyoto [1] is -0.00275. For the same substance, the thermal stability score in the data set with HeLa Kyoto [2] (setting [5]) was determined as 0.216; in the data set on HeLa Kyoto [2] (cell cycle stage: mitosis), 1.36. In addition, the “solubility change mitosis (log2)” value in the data set on HeLa Kyoto [3] is -0.188. Moreover, the figures for the melting temperature in the data set with HeLa Kyoto [4] (cell cycle stage: G1/S) and with HeLa Kyoto [4] (cell cycle stage: mitosis) were 49 °C and 50.4 °C, respectively.

As to OLA1, the “solubility in G1/S (log2)” value in the data set on HeLa Kyoto [1] amounted to 0.346. Besides, the figures for the thermal stability score in the data set on HeLa Kyoto [2] (setting [5]) and with HeLa Kyoto [2] (cell cycle stage: mitosis) were 1.23 and 0.644, respectively. Further, the “solubility change mitosis (log2)” value in the data set on HeLa Kyoto [3] is -0.109. Moreover, the melting temperature with HeLa Kyoto [4] (cell cycle stage: G1/S) came out at 51.3 °C; with HeLa Kyoto [4] (cell cycle stage: mitosis), 51.2 °C.

Take “MESVSCSAAAVRTGDMESQRDLSLVPERLQRREQERQLEVERRKQKRQNQEVEKENSHFFVATFVRERAAVEELLERAESVERLEEAASRLQGLQKLINDSVFFLAAYDLRQGQEALARLQAALAERRRGLQPKKRFAFKTRGKDAASSTKVDAAPGIPPAVESIQDSPLPKKAEGDLGPSWVCGFSNLESQVLEKRASELHQRDVLLTELSNCTVRLYGNPNTLRLTKAHSCKLLCGPVSTSVFLEDCSDCVLAVACQQLRIHSTKDTRIFLQVTSRAIVEDCSGIQFAPYTWSYPEIDKDFESSGLDRSKNNWNDVDDFNWLARDMASPNWSILPEEERNIQWD [TBCC]”: in the data set with HeLa Kyoto [1], the “solubility in G1/S (log2)” value came out at 0.242. Moreover, the thermal stability score amounted to 0.786 with HeLa Kyoto [2] (setting [5]) and 0.503 in the data set with HeLa Kyoto [2] (cell cycle stage: mitosis). The “solubility change mitosis (log2)” value in the data set on HeLa Kyoto [3] was -0.152. For the same substance, the melting temperature with HeLa Kyoto [4] (cell cycle stage: G1/S) is 51.8 °C; with HeLa Kyoto [4] (cell cycle stage: mitosis) it was 52.4 °C.

Consider PSIP1, for which, in the data set with HeLa Kyoto [1], the “solubility in G1/S (log2)” value was 0.071. Further, the results for the thermal stability score with HeLa Kyoto [2] (setting [5]) and in the data set with HeLa Kyoto [2] (cell cycle stage: mitosis) were -1.03 and -2.11, respectively. Besides, the “solubility change mitosis (log2)” value in the data set on HeLa Kyoto [3] worked out at 0.557. Also, the melting temperature was determined as 50.8 °C with HeLa Kyoto [4] (cell cycle stage: G1/S) and 52.2 °C with HeLa Kyoto [4] (cell cycle stage: mitosis).

Consider “MELSAEYLREKLQRDLEAEHVEVEDTTLNRCSCSFRVLVVSAKFEGKPLLQRHRLVNACLAEELPHIHAFEQKTLTPDQWARERQK [BOLA2]”, for which the “solubility in G1/S (log2)” value in the data set with HeLa Kyoto [1] is -0.0477. Besides, the thermal stability score with HeLa Kyoto [2] (setting [5]) amounted to 0.374; in the data set on HeLa Kyoto [2] (cell cycle stage: mitosis), 0.288. The “solubility change mitosis (log2)” value with HeLa Kyoto [3] stood at 0.186. The results for the melting temperature in the data set on HeLa Kyoto [4] (cell cycle stage: G1/S) and with HeLa Kyoto [4] (cell cycle stage: mitosis) were 50.9 °C and 51.9 °C, respectively.
